The values that follow come from US20040018957A1, “Crystal structure of a Ras-P13K complex” (priority 2000, published 2004).

Numbering of substitutions follows the chain as printed. Numbers in names are those of the source.

In assay [1] the target is N-Ras.GDP (Homo sapiens, UniProt P01111). Nature of the assay: Binding of PI3Kγ constructs to N-Ras.GDP.
Assay [2] deals with T1, N-Ras.mant-GMPPNP (Homo sapiens, UniProt P01111).
T1 construct: fluorescence anisotropy of full length, unmodified N-Ras.mant-GMPPNP
T1 sequence (P01111 whole entry): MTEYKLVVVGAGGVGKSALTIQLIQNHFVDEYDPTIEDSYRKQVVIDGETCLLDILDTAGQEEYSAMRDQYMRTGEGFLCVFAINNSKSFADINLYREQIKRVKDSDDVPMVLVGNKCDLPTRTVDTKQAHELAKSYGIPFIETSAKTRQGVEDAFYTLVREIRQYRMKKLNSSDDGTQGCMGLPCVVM
The assay can be described thus: Fluorescence anisotropy titration of PI3Kγ 144-1102 into N-Ras.mant-GMPPNP. Type of assay: binding. The note with it: mutants in the 144-1102 construct, FIG. 2A. The procedure:
Mant-nucleotides were synthesised as described previously (Jameson and Eccleston, 1997). N-Ras and H-Ras mutants were loaded with mant-GMPPNP as in (Moore et al., 1993), gel filtered into running buffer (20 mM Tris pH 7.5, 2 mM MgCl2, 1 mM DTT), and frozen at −80° C. The concentration of Ras.mant-GMPPNP was determined by measuring the absorbance of the mant group at […] with ε=5700 M^−1 cm^−1 (Hiratsuka, 1983). For binding assays, the 144-1102 human PI3Kγ was titrated into a 1 μM solution of fill length, unmodified N-Ras.mant-GMPPNP. Data were collected with SLM 8000 S and ISS PC1 spectrofluorimeters, set up in the T-format and L-format, respectively, with prism polarizers. All measurements were taken at 20° C. with a λex of 366 nm. Both emission PMTs were fitted with 399 nm cutoff filters. Five measurements of each data point were obtained and averaged. Data were fitted to the binding equation.
A general note: Fluorescence polarisation rises when a labelled molecule tumbles more slowly, as on binding a larger partner.

N-Ras.GDP, sequence (P01111 whole entry): as above

B1: V223K: tighter-binding PI3Kγ mutant used for co-crystallisation with Ras (protein, UniProt P48736 1-1102, looked up, variant V223K)
Phosphatidylinositol …: MELENYKQPVVLREDNCRRRRRMKPRSAAASLSSMELIPIEFVLPTSQRKCKSPETALLHVAGHGNVEQMKAQVWLRALETSVAADFYHRLGPHHFLLLYQKKGQWYEIYDKYQVVQTLDCLRYWKATHRSPGQIHLVQRHPPSEESQAFQRQLTALIGYDVTDVSNVHDDELEFTRRGLVTPRMAEVASRDPKLYAMHPWVTSKPLPEYLWKKIANNCIFIKIHRSTTSQTIKVSPDDTPGAILQSFFTKMAKKKSLMDIPESQSEQDFVLRVCGRDEYLVGETPIKNFQWVRHCLKNGEEIHVVLDTPPDPALDEVRKEEWPLVDDCTGVTGYHEQLTIHGKDHESVFTVSLWDCDRKFRVKIRGIDIPVLPRNTDLTVFVEANIQHGQQVLCQRRTSPKPFTEEVLWNVWLEFSIKIKDLPKGALLNLQIYCGKAPALSSKASAESPSSESKGKVQLLYYVNLLLIDHRFLLRRGEYVLHMWQISGKGEDQGSFNADKLTSATNPDKENSMSISILLDNYCHPIALPKHQPTPDPEGDRVRAEMPNQLRKQLEAIIATDPLNPLTAEDKELLWHFRYESLKHPKAYPKLFSSVKWGQQEIVAKTYQLLARREVWDQSALDVGLTMQLLDCNFSDENVRAIAVQKLESLEDDDVLHYLLQLVQAVKFEPYHDSALARFLLKRGLRNKRIGHFLFWFLRSEIAQSRHYQQRFAVILEAYLRGCGTAMLHDFTQQVQVIEMLQKVTLDIKSLSAEKYDVSSQVISQLKQKLENLQNSQLPESFRVPYDPGLKAGALAIEKCKVMASKKKPLWLEFKCADPTALSNETIGIIFKHGDDLRQDMLILQILRIMESIWETESLDLCLLPYGCISTGDKIGMIEIVKDATTIAKIQQSTVGNTGAFKDEVLNHWLKEKSPTEEKFQAAVERFVYSCAGYCVATFVLGIGDRHNDNIMITETGNLFHIDFGHILGNYKSFLGINKERVPFVLTPDFLFVMGTSGKKTSPHFQKFQDICVKAYLALRHHTNLLIILFSMMLMTGMPQLTSKEDIEYIRDALTVGKNEEDAKKYFLDQIEVCRDKGWTVQFNWFLHLVLGIKQGEKHSA
Turning to B1, the “binding to N-Ras.GDP” value in assay [1] is listed as “Neither the wild-type protein, the pseudo wild-type (V327A, see methods), nor the V223K mutant exhibit detectable binding”. For the same molecule, the “effect of PI3Kγ RBD mutation on binding to Ras” value (“effect of PI3Kγ RBD mutation” for short) in assay [2] is “tighter-binding”.

B2: K234A: PI3Kγ mutant of a switch II contact residue (protein, UniProt P48736 1-1102, looked up, variant K234A)
Phosphatidylinositol …: B1 Phosphatidylinositol … with K223V, K234A
B2: the “effect of PI3Kγ RBD mutation” value in assay [2] is listed as “probably increases the Kd”.

B3: K256A: PI3Kγ RBD mutant (protein, UniProt P48736 1-1102, looked up, variant K256A)
Phosphatidylinositol …: B1 Phosphatidylinositol … with K223V, K256A
Take B3: the “effect of PI3Kγ RBD mutation” value in assay [2] is recorded as “reduce binding by up to an order of magnitude”.

B4: T232D: PI3Kγ RBD mutant (protein, UniProt P48736 1-1102, looked up, variant T232D)
Phosphatidylinositol …: B1 Phosphatidylinositol … with K223V, T232D
Consider B4, for which the “effect of PI3Kγ RBD mutation” value in assay [2] is “eliminate binding”.

B5: R226A: PI3Kγ RBD mutant (protein, UniProt P48736 1-1102, looked up, variant R226A)
Phosphatidylinositol …: B1 Phosphatidylinositol … with K223V, R226A
Turning to B5, the “effect of PI3Kγ RBD mutation” value in assay [2] is “reduce binding by up to an order of magnitude”.

B6: Lys-254: PI3Kγ mutant, Lys-254 mutated to Ala (protein, UniProt P48736 1-1102, looked up, variant K254A)
Phosphatidylinositol …: B1 Phosphatidylinositol … with K223V, K254A
As for B6, the “effect of PI3Kγ RBD mutation” value in assay [2] is “greatly lowers the affinity”.

B7: E267K: tighter-binding PI3Kγ mutant (protein, UniProt P48736 1-1102, looked up, variant E267K)
Phosphatidylinositol …: B1 Phosphatidylinositol … with K223V, E267K
On to B7, for which the “effect of PI3Kγ RBD mutation” value in assay [2] was “tighter-binding”.

B8: K251A: PI3Kγ RBD mutant (protein, UniProt P48736 1-1102, looked up, variant K251A)
Phosphatidylinositol …: B1 Phosphatidylinositol … with K223V, K251A
Consider B8, for which the “effect of PI3Kγ RBD mutation” value in assay [2] was “eliminate binding”.

B9: K255A: PI3Kγ RBD mutant (protein, UniProt P48736 1-1102, looked up, variant K255A)
Phosphatidylinositol …: B1 Phosphatidylinositol … with K223V, K255A
With B9, the “effect of PI3Kγ RBD mutation” value in assay [2] is on record as “eliminate binding”.

B10: D260A: PI3Kγ RBD mutant (protein, UniProt P48736 1-1102, looked up, variant D260A)
Phosphatidylinositol …: B1 Phosphatidylinositol … with K223V, D260A
For the molecule B10, the “effect of PI3Kγ RBD mutation” value in assay [2] is on record as “reduce binding by up to an order of magnitude”.
